From patent publication US20070015155A1 (published 2007) come the findings set out here.

The experiment concerns the target T1, GST protein (UniProt P08515 1-218 = GST).
T1 construct: Control protein of the GST pull-down, on glutathione beads; also called protein consisting of the GST part alone; product of pGEX-6P-1
Description: GST pull-down with 35S-labeled in vitro translated protein, SDS-PAGE, autoradiography. Here is the method: Using the protein GST-Cbl prepared above in (2), the presence or absence of the direct interaction of human and mouse CbAP40 proteins with the c-Cbl protein was confirmed by the GST-pull down method (Zikken Kougaku, Vol. 13, No. 6, 1994, p. 528, Matsushime, et al.). Using 0.5 μg of pcDNA-CbAP40 prepared above in Example 1(4) or pcDNA-mCbAP40 prepared above in Example 8(2) as a template, and additionally using 40 μl of TNT kit (TNT^R Quick Coupled Transcription/Translation System; Promega) and 1.3 MBq of a radioisotope (redivue Pro-mix L-[³⁵S]; Amersham) according to the attached protocol, human or mouse CbAP40 protein radioactively labeled was prepared by in vitro transcription and translation. Then, 15 μl each of the prepared solution of human or mouse CbAP40 protein was mixed with 1 μl of the GST protein or GST-Cbl purified on glutathione beads as described above in (2) to which 0.3 ml of Buffer A (50 mM Tris-HCl, pH 7.5, 10% glycerol, 120 mM NaCl, 1 mM EDTA, 0.1 mM EGTA, 0.5 mM PMSF, 0.5% NP-40) was added. The resulting mixture was shaken at 4° C. for one hour. Subsequently, the protein binding to the GST protein or GST-Cbl on the bead was co-precipitated by centrifugation. […] Consequently, a band never detected in mixing the GST protein was detected in case of mixing GST-Cbl.

T1 sequence (P08515 whole entry): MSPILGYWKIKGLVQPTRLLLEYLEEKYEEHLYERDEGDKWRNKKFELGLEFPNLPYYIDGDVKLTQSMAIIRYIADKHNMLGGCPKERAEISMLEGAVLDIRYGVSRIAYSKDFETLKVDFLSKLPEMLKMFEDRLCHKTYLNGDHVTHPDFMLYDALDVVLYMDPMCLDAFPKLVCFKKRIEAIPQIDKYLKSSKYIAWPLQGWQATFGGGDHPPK

B1: human CbAP40-V5-His6 fusion protein (other, not shown: small tags and cut ends)
chain: MMSSSWPGTSPRLSRGSGSCLTSGATGPCQADSSLKAGPGAGVFFLSSAEGEQISFLFDCIVRGISPTKGPFGLRPVLPDPSPPGPSTVEERVAQEALETLQLEKRLSLLSHAGRPGSGGDDRSLSSSSSEASHLDVSASSRLTAWPEQSSSSASTSQEGPRPAAAQAAGEAMVGASRPPPKPLRPRQLQEVGRQSSSDSGIATGSHSSYSSSLSSYAGSSLDVWRATDELGSLLSLPAAGAPEPSLCTCLPGTVEYQVPTSLRAHYDTPRSLCLAPRDHSPPSQGSPGNSAARDSGGQTSAGCPSGWLGTRRRGLVMEAPQGSEATLPGPAPGEPWEAGGPHAGPPPAFFSACPVCGGLKVNPPP
modifications: radioactively labeled by in vitro transcription and translation with redivue Pro-mix L-[35S]
notes: Made by in vitro transcription/translation (TNT kit) from pcDNA-CbAP40; 411 amino acids in total with the 45-residue C-terminal tag. 'mature' stands here for the full-length protein (no signal peptide is mentioned); also called human CbAP40 protein; Cbl associated protein 40
In the case of B1, the binding result is “no binding”.
